Laboratory results reported in the supplement of paper PMC9170038.

Tested on: MS2 coat protein
Assay: apparent KD of MS2 coat protein; higher = weaker reporter binding
Details: Eterna round: R107
Summary of the method: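 Illumina sequencing clusters were used for on-chip transcription of designed RNA switches. Titration with SNAP-549-labelled MS2 coat protein followed, in twofold steps from 0.7 or 1.5 nM to 3 µM in 100 mM Tris-HCl pH 7.5, 80 mM KCl, 4 mM MgCl2, without or with constant ligand. Apparent KD is each design's median of fits to normalised cluster binding curves.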

[1] = input ligand: theophylline 20 uM
[2] = input ligand: theophylline 2 mM
[3] = input ligand: tryptophan 2.4 mM

| Sequence | apparent KD of MS2 coat protein (input ligand: arginine 13.2 mM) | apparent KD of MS2 coat protein (input ligand: none) | apparent KD of MS2 coat protein [1] | apparent KD of MS2 coat protein [2] | apparent KD of MS2 coat protein [3] |
| --- | --- | --- | --- | --- | --- |
| GGCUGUCAUAGGAGGUCAAAUAUACUCGAAGGAGCGUCAUAGUAGGCAGGUAGGUCGCGAGACAUGAGGAUCACCCAUGUAGAGA [xkxmullin] | 37.7 nM | 69.1 nM | 122 nM | 52.9 nM | 30.6 nM |
| GGCUGUUGCGAUUUGAAGCGGCAGCGUGAUACCAGAUGUAAGAGCGUCCCUUGGCAGCACGUUUACAUGAGGAUCACCCAUGUCA [Xerema] | 56.6 nM |  | 123 nM |  | 192 nM |
| GGCUGUUGCUCUUUGAAGCGGCAGCGUGAUACCAGAUGUAAGAGCGUCCCUUGGCAGCACGUUUACAUGAGGAUCACCCAUGUCA [Raisquin] | 70.6 nM |  | 163 nM |  | 151 nM |
| GGCUUCAACUCGGCCGCCACUGGUGAUCCUCAUGUACAUGAGGAUCACCCAUGUACAUGAGACUACAGGACCGGGAGAUCAGCAA [Tryptophan B] | 10.5 nM |  | 28.8 nM | 22.5 nM |  |
| GGGAAUGAACGUGAUACCAGAGAUCCGGUCUCCGUCACUCUACAUGAGGAUCACCCAUGUCUCCCUUGGCAGCACCGUCAUCGGG [Exclusion Theophylline B GF 29] | 32.4 nM |  | 43.3 nM |  | 29 nM |
| GGGACAUCGGGAAGGAGCGCAUCCAAACCACACAUGAGGAUCACCCAUGUAUAAAUAUGCAUGCAGGUAGGUCGCCCGGUGCCUC [Axeenza] | 44.2 nM | 114 nM | 131 nM | 123 nM | 101 nM |
| GGGAGGGAGGCGGCCGCCACUGAUUUUCAUAUAUAUAUAACAUGAGGAUCACCCAUGUGGAUAUGCAGGACCGGGCCUUUUUUUU [aaaJ] | 123 nM | 22.2 nM | 18.8 nM | 13.2 nM | 20.2 nM |
| GGGCAAGAGGGAAGGAGCGUCGGCUGAGUAACAUGAGGAUCACCCAUGUAGCACAUGGUGUGGCAGGUAGGUCGCCCUCUGCCCU [SS-ArgB8] | 56.1 nM | 103 nM | 201 nM | 178 nM | 118 nM |
| GGGCCCGGGCCCGAUACCAGCAGAGAAAACAUAUAUCCUAACAUGAGGAUCACCCAUGUAUGCCCUUGGCAGCGGGCCCGGGCCC [#15 Exclusion-TheophyllineB] | 32.2 nM | 34.5 nM | 33.9 nM | 33.2 nM | 28.2 nM |
| GGGCCCGGGCGCGAGCCCGGGCCCAUUGAUACCAGUGAAUAUAUACGCCCUUGGCAGCGAAUCCUAACAUGAGGAUCACCCAUGU [5.B] | 34.8 nM | 50.2 nM | 62.3 nM | 49.4 nM | 38.2 nM |
| GGGCCCGGGCGCGAGCCCGGGCCCAUUGAUACCAGUGAAUGUGUACGCCCUUGGCAGCGAAUCCUAACAUGAGGAUCACCCAUGU [5.D] | 31.4 nM |  | 76.7 nM |  | 35.2 nM |
| GGGCCUGUAGGCAGGCCCACAGCGGGUGAUACCAGCAAUAAAACUUGCCCUUGGCAGCACACAGCUACAUGAGGAUCACCCAUGU [Ismaorxe] | 44.9 nM |  | 99.3 nM |  | 69.7 nM |
| GGGCGCUAUCCCGCGAGGGAUAGCGUUCAACGAGGACCGGUACGGCCGCCACUCGAACGAGUGGGUACAUGAGGAUCACCCAUGU [Haa] | 19.9 nM | 28.5 nM | 46.4 nM | 37.1 nM | 35.4 nM |
| GGGCGUGUGGCGCGGCGUGCUCCGCUCCGUCGAGGACCGGUACGGCCGCCACUCGACAUGAGGAUCACCCAUGUGCGAGCUCGCG [#1 Exclusion - Tryptophan A Attempt #11 (HarryS)] | 17.6 nM | 33.8 nM | 35.6 nM | 44.6 nM | 154 nM |
| GGGUACAUCGCGGCCGCCACUUAUGUAAAUACAUGAGGAUCACCCAUGUCGAUGGAGACAUCGGUAAGGACCGGGUGAUGUACCG | 168 nM | 155 nM | 174 nM | 183 nM |  |
| GGGUCGGGCGCGGCCGCCACUGCGGUGGUGUGACAUGAGGAUCACCCAUGUUGUCAUGCGGCCCUUAGGACCGGGCGCCCGGCCC [#1 Exclusion - Tryptophan B Attempt #11 (HarryS)] | 19.3 nM | 42.5 nM | 67.4 nM | 70.1 nM | 38.4 nM |
| GGGUGCGGCACGGCCGCCACUGCGGUGGUGUGACAUGAGGAUCACCCAUGUUGUCAUGCGGCCCUUAGGACCGGGUGGCGUGCCU [#1 Exclusion - Tryptophan B Attempt #15 (HarryS)] | 5.27 nM | 24.1 nM | 31.2 nM | 89.5 nM | 38 nM |
